One experiment concerns 3×MBT domain of L3MBTL1. Nature of the experiment: Triple SILAC pull-down, 3xMBT/3xMBTD355N ratio (cytoplasmic, nuclear and chromatin fractions of 293T cells).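 As to all read-outs here: proteins quantified with MaxQuant, requiring at least two unique peptides and quantification in both label directions, normalized to the mean of proteins from a digested loading control.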 In kind it is binding, human. The note with it: SILAC ratio, pull-down 3xMBT vs 3xMBTD355N; for 3xMBT/D355N UNC Heavy: experiment with UNC0638 in heavy SILAC media; for 3xMBT/D355N UNC Light: experiment with UNC0638 in light SILAC media.

For a further experiment, the target named is T1, G9a and GLP (Homo sapiens, UniProt Q96KQ7+Q9H9B1).
T1 sequence (Q96KQ7 2-1210 limits assumed): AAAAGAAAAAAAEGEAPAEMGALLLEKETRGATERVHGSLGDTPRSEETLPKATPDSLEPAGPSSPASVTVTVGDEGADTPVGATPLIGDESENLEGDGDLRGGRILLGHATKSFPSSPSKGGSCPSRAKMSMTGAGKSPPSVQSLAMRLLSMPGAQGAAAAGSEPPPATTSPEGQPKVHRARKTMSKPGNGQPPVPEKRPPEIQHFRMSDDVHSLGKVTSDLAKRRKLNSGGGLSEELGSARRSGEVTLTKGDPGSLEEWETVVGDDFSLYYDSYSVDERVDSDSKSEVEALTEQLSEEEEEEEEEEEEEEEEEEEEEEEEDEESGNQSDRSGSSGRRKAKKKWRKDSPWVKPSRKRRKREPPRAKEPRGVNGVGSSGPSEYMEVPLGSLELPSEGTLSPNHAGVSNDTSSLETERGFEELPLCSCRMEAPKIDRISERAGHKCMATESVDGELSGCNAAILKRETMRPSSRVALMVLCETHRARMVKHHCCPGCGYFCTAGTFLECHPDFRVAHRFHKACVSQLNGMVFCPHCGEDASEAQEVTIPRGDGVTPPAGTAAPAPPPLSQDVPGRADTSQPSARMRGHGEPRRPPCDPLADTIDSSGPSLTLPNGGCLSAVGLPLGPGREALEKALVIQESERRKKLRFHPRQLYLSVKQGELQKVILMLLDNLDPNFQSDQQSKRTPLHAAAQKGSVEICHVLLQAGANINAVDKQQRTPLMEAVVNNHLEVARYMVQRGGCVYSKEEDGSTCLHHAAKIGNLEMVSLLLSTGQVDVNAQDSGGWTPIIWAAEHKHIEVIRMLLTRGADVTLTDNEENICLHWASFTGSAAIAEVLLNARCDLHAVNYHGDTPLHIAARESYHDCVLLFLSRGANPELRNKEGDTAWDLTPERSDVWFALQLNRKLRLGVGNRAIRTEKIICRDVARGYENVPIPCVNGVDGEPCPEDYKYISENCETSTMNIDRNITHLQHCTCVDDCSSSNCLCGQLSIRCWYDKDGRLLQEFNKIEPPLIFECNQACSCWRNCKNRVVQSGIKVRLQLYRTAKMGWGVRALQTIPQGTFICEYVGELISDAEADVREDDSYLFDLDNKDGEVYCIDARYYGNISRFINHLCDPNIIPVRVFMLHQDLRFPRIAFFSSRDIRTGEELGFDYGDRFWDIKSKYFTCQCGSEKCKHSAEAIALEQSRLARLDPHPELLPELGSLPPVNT
T1 sequence (Q9H9B1 2-1298 limits assumed): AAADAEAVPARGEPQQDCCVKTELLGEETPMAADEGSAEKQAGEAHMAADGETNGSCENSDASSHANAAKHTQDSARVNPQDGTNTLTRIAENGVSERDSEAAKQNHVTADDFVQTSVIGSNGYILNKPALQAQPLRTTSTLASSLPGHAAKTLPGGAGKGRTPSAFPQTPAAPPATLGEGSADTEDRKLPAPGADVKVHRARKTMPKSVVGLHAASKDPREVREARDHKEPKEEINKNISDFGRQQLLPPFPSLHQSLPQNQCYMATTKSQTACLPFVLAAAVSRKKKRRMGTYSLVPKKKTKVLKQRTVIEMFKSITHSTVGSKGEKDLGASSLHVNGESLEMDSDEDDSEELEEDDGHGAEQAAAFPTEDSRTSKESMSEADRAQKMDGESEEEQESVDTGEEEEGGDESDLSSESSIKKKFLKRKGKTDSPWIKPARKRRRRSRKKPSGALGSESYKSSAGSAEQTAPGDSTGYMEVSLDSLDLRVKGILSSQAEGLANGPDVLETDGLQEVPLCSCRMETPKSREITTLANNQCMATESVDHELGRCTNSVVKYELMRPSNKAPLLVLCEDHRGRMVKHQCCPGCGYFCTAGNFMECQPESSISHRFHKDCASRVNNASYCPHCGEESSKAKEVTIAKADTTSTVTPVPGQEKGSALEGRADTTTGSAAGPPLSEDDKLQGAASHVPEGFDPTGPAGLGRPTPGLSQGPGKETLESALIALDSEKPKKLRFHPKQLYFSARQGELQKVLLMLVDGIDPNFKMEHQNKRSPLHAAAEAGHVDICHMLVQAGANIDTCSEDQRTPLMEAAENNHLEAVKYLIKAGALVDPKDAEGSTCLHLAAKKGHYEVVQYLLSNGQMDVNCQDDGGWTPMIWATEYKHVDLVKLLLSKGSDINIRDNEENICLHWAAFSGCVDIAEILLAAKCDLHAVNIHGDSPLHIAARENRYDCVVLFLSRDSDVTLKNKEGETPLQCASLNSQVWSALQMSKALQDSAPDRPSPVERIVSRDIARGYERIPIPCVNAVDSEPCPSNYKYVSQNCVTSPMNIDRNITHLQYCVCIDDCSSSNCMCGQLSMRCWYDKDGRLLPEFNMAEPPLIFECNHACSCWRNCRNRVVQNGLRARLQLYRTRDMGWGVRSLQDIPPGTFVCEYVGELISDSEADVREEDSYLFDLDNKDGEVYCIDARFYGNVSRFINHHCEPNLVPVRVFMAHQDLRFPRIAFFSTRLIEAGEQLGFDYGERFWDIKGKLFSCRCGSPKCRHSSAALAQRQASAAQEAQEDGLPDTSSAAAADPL
Nature of the experiment: Triple SILAC pull-down after UNC0638 treatment of 293T cells, DMSO/UNC0638 ratio of protein captured by 3×MBT.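 As to all read-outs here: mass spectrometry (Q-Exactive) SILAC quantitation, DMSO/UNC0638 ratio computed after subtracting 3×MBTD355N mutant pull-down background, only proteins with at least twofold 3×MBT over mutant signal considered.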 Format: cell-based. Details: cells were treated for 24 hours with UNC0638 at 2.5 μM or DMSO vehicle control; endogenous in cells; host or cells: HEK 293T. The note with it: for Relative to UNC0638 UNC Heavy / Relative to UNC0638 UNC Light: SILAC ratio DMSO/UNC0638 of protein pulled down with 3xMBT; for Relative to UNC0638 UNC Heavy: UNC0638 in heavy SILAC media; for Relative to UNC0638 UNC Light: UNC0638 in light SILAC media; for Relative to UNC0638 Average: average of UNC Light and UNC Heavy experiments.

B1: HNRNPA3 (protein, UniProt P51991 1-378, looked up)
Heterogeneous nuclear …: MEVKPPPGRPQPDSGRRRRRRGEEGHDPKEPEQLRKLFIGGLSFETTDDSLREHFEKWGTLTDCVVMRDPQTKRSRGFGFVTYSCVEEVDAAMCARPHKVDGRVVEPKRAVSREDSVKPGAHLTVKKIFVGGIKEDTEEYNLRDYFEKYGKIETIEVMEDRQSGKKRGFAFVTFDDHDTVDKIVVQKYHTINGHNCEVKKALSKQEMQSAGSQRGRGGGSGNFMGRGGNFGGGGGNFGRGGNFGGRGGYGGGGGGSRGSYGGGDGGYNGFGGDGGNYGGGPGYSSRGGYGGGGPGYGNQGGGYGGGGGYDGYNEGGNFGGGNYGGGGNYNDFGNYSGQQQSNYGPMKGGSFGGRSSGSPYGGGYGSGGGSGGYGSRRF
Consider B1, for which, in the experiment with 3×MBT domain of L3MBTL1, the “3xMBT/D355N UNC Heavy” value is recorded as 2.96 log base 2 and the “3xMBT/D355N UNC Light” value amounted to 3.79 log base 2. In the experiment with G9a and GLP, the “Relative to UNC0638 UNC Heavy” value was determined as 0.20 log base 2, the “Relative to UNC0638 UNC Light” value turned out to be 0.16 log base 2 and the “Relative to UNC0638 Average” value is listed as 0.18 log base 2.

B2: SF3B3 (protein, UniProt Q15393 1-1217, looked up)
Splicing factor 3B subunit 3: MFLYNLTLQRATGISFAIHGNFSGTKQQEIVVSRGKILELLRPDPNTGKVHTLLTVEVFGVIRSLMAFRLTGGTKDYIVVGSDSGRIVILEYQPSKNMFEKIHQETFGKSGCRRIVPGQFLAVDPKGRAVMISAIEKQKLVYILNRDAAARLTISSPLEAHKANTLVYHVVGVDVGFENPMFACLEMDYEEADNDPTGEAAANTQQTLTFYELDLGLNHVVRKYSEPLEEHGNFLITVPGGSDGPSGVLICSENYITYKNFGDQPDIRCPIPRRRNDLDDPERGMIFVCSATHKTKSMFFFLAQTEQGDIFKITLETDEDMVTEIRLKYFDTVPVAAAMCVLKTGFLFVASEFGNHYLYQIAHLGDDDEEPEFSSAMPLEEGDTFFFQPRPLKNLVLVDELDSLSPILFCQIADLANEDTPQLYVACGRGPRSSLRVLRHGLEVSEMAVSELPGNPNAVWTVRRHIEDEFDAYIIVSFVNATLVLSIGETVEEVTDSGFLGTTPTLSCSLLGDDALVQVYPDGIRHIRADKRVNEWKTPGKKTIVKCAVNQRQVVIALTGGELVYFEMDPSGQLNEYTERKEMSADVVCMSLANVPPGEQRSRFLAVGLVDNTVRIISLDPSDCLQPLSMQALPAQPESLCIVEMGGTEKQDELGERGSIGFLYLNIGLQNGVLLRTVLDPVTGDLSDTRTRYLGSRPVKLFRVRMQGQEAVLAMSSRSWLSYSYQSRFHLTPLSYETLEFASGFASEQCPEGIVAISTNTLRILALEKLGAVFNQVAFPLQYTPRKFVIHPESNNLIIIETDHNAYTEATKAQRKQQMAEEMVEAAGEDERELAAEMAAAFLNENLPESIFGAPKAGNGQWASVIRVMNPIQGNTLDLVQLEQNEAAFSVAVCRFSNTGEDWYVLVGVAKDLILNPRSVAGGFVYTYKLVNNGEKLEFLHKTPVEEVPAAIAPFQGRVLIGVGKLLRVYDLGKKKLLRKCENKHIANYISGIQTIGHRVIVSDVQESFIWVRYKRNENQLIIFADDTYPRWVTTASLLDYDTVAGADKFGNICVVRLPPNTNDEVDEDPTGNKALWDRGLLNGASQKAEVIMNYHVGETVLSLQKTTLIPGGSESLVYTTLSGGIGILVPFTSHEDHDFFQHVEMHLRSEHPPLCGRDHLSFRSYYFPVKNVIDGDLCEQFNSMEPNKQKNVSEELDRTPPEVSKKLEDIRTRYAF
Turning to B2, in the experiment with 3×MBT domain of L3MBTL1, the “3xMBT/D355N UNC Heavy” value was found to be 2.48 log base 2 and the “3xMBT/D355N UNC Light” value was found to be 2.08 log base 2. Also, in the experiment with G9a and GLP, the “Relative to UNC0638 UNC Heavy” value was 0.06 log base 2, the “Relative to UNC0638 UNC Light” value stood at 0.31 log base 2 and the “Relative to UNC0638 Average” value is recorded as 0.18 log base 2.

B3: MCM3 (protein, UniProt P25205 2-808, looked up)
DNA replication licensing …: AGTVVLDDVELREAQRDYLDFLDDEEDQGIYQSKVRELISDNQYRLIVNVNDLRRKNEKRANRLLNNAFEELVAFQRALKDFVASIDATYAKQYEEFYVGLEGSFGSKHVSPRTLTSCFLSCVVCVEGIVTKCSLVRPKVVRSVHYCPATKKTIERRYSDLTTLVAFPSSSVYPTKDEENNPLETEYGLSVYKDHQTITIQEMPEKAPAGQLPRSVDVILDDDLVDKAKPGDRVQVVGTYRCLPGKKGGYTSGTFRTVLIACNVKQMSKDAQPSFSAEDIAKIKKFSKTRSKDIFDQLAKSLAPSIHGHDYVKKAILCLLLGGVERDLENGSHIRGDINILLIGDPSVAKSQLLRYVLCTAPRAIPTTGRGSSGVGLTAAVTTDQETGERRLEAGAMVLADRGVVCIDEFDKMSDMDRTAIHEVMEQGRVTIAKAGIHARLNARCSVLAAANPVYGRYDQYKTPMENIGLQDSLLSRFDLLFIMLDQMDPEQDREISDHVLRMHRYRAPGEQDGDAMPLGSAVDILATDDPNFSQEDQQDTQIYEKHDNLLHGTKKKKEKMVSAAFMKKYIHVAKIIKPVLTQESATYIAEEYSRLRSQDSMSSDTARTSPVTARTLETLIRLATAHAKARMSKTVDLQDAEEAVELVQYAYFKKVLEKEKKRKKRSEDESETEDEEEKSQEDQEQKRKRRKTRQPDAKDGDSYDPYDFSDTEEEMPQVHTPKTADSQETKESQKVELSESRLKAFKVALLDVFREAHAQSIGMNRLTESINRDSEEPFSSVEIQAALSKMQDDNQVMVSEGIIFLI
On to B3, for which, in the experiment with 3×MBT domain of L3MBTL1, the “3xMBT/D355N UNC Heavy” value was 2.59 log base 2 and the “3xMBT/D355N UNC Light” value turned out to be 2.49 log base 2. Also, in the experiment with G9a and GLP, the “Relative to UNC0638 UNC Heavy” value is reported as 0.28 log base 2, the “Relative to UNC0638 UNC Light” value amounted to 0.09 log base 2 and the “Relative to UNC0638 Average” value is recorded as 0.18 log base 2.

B4: LSM12 (protein, UniProt Q3MHD2 2-195, looked up)
Protein LSM12: AAPPGEYFSVGSQVSCRTCQEQRLQGEVVAFDYQSKMLALKCPSSSGKPNHADILLINLQYVSEVEIINDRTETPPPLASLNVSKLASKARTEKEEKLSQAYAISAGVSLEGQQLFQTIHKTIKDCKWQEKNIVVMEEVVITPPYQVENCKGKEGSALSHVRKIVEKHFRDVESQKILQRSQAQQPQKEAALSS
Regarding B4, in the experiment with 3×MBT domain of L3MBTL1, the “3xMBT/D355N UNC Heavy” value is given as 2.07 log base 2 and the “3xMBT/D355N UNC Light” value turned out to be 3.81 log base 2. Moreover, in the experiment with G9a and GLP, the “Relative to UNC0638 UNC Heavy” value was found to be 0.03 log base 2, the “Relative to UNC0638 UNC Light” value was found to be 0.34 log base 2 and the “Relative to UNC0638 Average” value stood at 0.18 log base 2.
